These results are taken from article PMC12175502, “7β-Hydroxysteroid dehydratase Hsh3 eliminates the 7-hydroxy group of the bile salt ursodeoxycholate during degradation by Sphingobium sp. strain Chol11 and other Sphingomonadaceae” (Applied and Environmental Microbiology, 2025).

What is called Km is the substrate concentration at which the rate is half of its maximum. The kcat is the number of substrate molecules converted per active site and unit of time at saturation. Usually kcat/Km stands for the second-order rate constant that governs catalysis at low substrate concentration.

One data set concerns T1, Hsh2.
T1 construct: tag not reported cut
Nature of the data set: continuous spectrophotometric assay at […] nm. To be noted: 50 mM MOPS pH 7.8, 30 °C, 25% ethanol; dehydration; substrate range 50 µM to 1 mM. In kind it is biochemical, Sphingobium sp. Chol11.

Data set [1] relates to T2, C[C@]12C=CC(=O)C=C1C[C@H](O)[C@@H]1[C@@H]2CC[C@]2(C)C(=O)CC[C@@H]12.
T2 construct: His-tagged, pET28b(+), E. coli Tuner(DE3), Ni-NTA and desalting gel filtration; tag not reported cut; primers read start MEKLICAL and end AHLDGK before vector C-terminal tag
Nature of the data set: purified protein. To be noted: 50 mM MOPS pH 7.8, 30 °C, 25% ethanol, dehydration, substrate range 50 µM to 1 mM. The format is biochemical, Sphingobium sp. Chol11.

On to `C[C@]12C=CC(=O)C=C1C[C@@H](O)[C@@H]1[C@@H]2CC[C@]2(C)C(=O)CC[C@@H]12` [XI, 7α-hydroxy-androsta-1,4-diene-3,17-dione], for which the Km in the data set with Hsh2 was 250 ± 50 µM.
Regarding Hsh3 (Nov2c681) (Sphingobium sp.), in data set [1], the Michaelis constant (Km) was found to be 1260 ± 450 µM, the kcat was 130 ± 30.1 s⁻¹ and the kcat/Km came to 103000 M⁻¹ s⁻¹.
